This data set relates to Escherichia coli TOP10. Nature of the data set: shrunken log2 fold change of peptide-encoding DNA abundance (4.5 h post-induction vs induction); higher = less antimicrobial activity (less host growth inhibition). To be noted: time post-induction: 4.5 h; library: site-saturation at positions 5, 18, 19, 20.
With RRIRCRPPRLPRPRPRPMNPPRP, the “shrunken log2 fold change” value is -0.24.
Regarding RRIRSRPPRLPRPRPRPAGSPRP, the “shrunken log2 fold change” value was -0.209.
In the case of RRIRQRPPRLPRPRPRPSITPRP, the “shrunken log2 fold change” value is -0.731.
For the sequence RRIRMRPPRLPRPRPRPAAAPRP, the “shrunken log2 fold change” value is 2.93.
As to RRIRHRPPRLPRPRPRPAVMPRP, the “shrunken log2 fold change” value was -0.0305.
Under RRIRKRPPRLPRPRPRPLEAPRP stands 0.505; under RRIRFRPPRLPRPRPRPNKFPRP, -0.783; under RRIRSRPPRLPRPRPRPFDRPRP, -0.118.
As to RRIRYRPPRLPRPRPRPLMGPRP, the “shrunken log2 fold change” value was -0.0741.
RRIRIRPPRLPRPRPRPTLHPRP: the “shrunken log2 fold change” value was -0.377.
As to RRIRTRPPRLPRPRPRPDSFPRP, the “shrunken log2 fold change” value was 0.033.
As for RRIRFRPPRLPRPRPRPCHWPRP, the “shrunken log2 fold change” value is -0.127.
As for RRIRCRPPRLPRPRPRPLADPRP, the figure is 0.4; as for RRIRSRPPRLPRPRPRPCTFPRP, -0.401.
With RRIRNRPPRLPRPRPRPMAGPRP, the “shrunken log2 fold change” value amounted to 0.0481.
As for RRIRFRPPRLPRPRPRPVIPPRP, the figure is -0.102.
Turning to RRIRRRPPRLPRPRPRPKWRPRP, the “shrunken log2 fold change” value turned out to be 0.587.
RRIRWRPPRLPRPRPRPWRNPRP: the “shrunken log2 fold change” value worked out at 0.0636.
For RRIRIRPPRLPRPRPRPAAFPRP, the “shrunken log2 fold change” value is -0.234.
On to RRIRDRPPRLPRPRPRPPNHPRP, for which the “shrunken log2 fold change” value is -0.205.
RRIRYRPPRLPRPRPRPPRTPRP: the “shrunken log2 fold change” value is -0.0112.
RRIRRRPPRLPRPRPRPCSYPRP: the “shrunken log2 fold change” value is -0.19.
For RRIRHRPPRLPRPRPRPHIQPRP, the “shrunken log2 fold change” value was -0.701.
As for RRIRNRPPRLPRPRPRPRTDPRP, the “shrunken log2 fold change” value was 0.089.
Take RRIRCRPPRLPRPRPRPMVTPRP: the “shrunken log2 fold change” value was -0.071.
Under RRIRNRPPRLPRPRPRPIGWPRP stands 0.115; under RRIRGRPPRLPRPRPRPKFSPRP, 0.392; under RRIRWRPPRLPRPRPRPHMTPRP, 0.118.
For the sequence RRIRYRPPRLPRPRPRPDARPRP, the “shrunken log2 fold change” value is -0.294.
With RRIRTRPPRLPRPRPRPRNCPRP, the “shrunken log2 fold change” value was -0.176.
Under RRIRWRPPRLPRPRPRPDQPPRP stands 0.234; under RRIRKRPPRLPRPRPRPNSVPRP, 0.0305.
For the sequence RRIRSRPPRLPRPRPRPREGPRP, the “shrunken log2 fold change” value was determined as 2.98.
As for RRIRGRPPRLPRPRPRPVWPPRP, the figure is 0.947; as for RRIRHRPPRLPRPRPRPHAAPRP, 0.292.
As to RRIRIRPPRLPRPRPRPGDVPRP, the “shrunken log2 fold change” value was -0.227.
With RRIRDRPPRLPRPRPRPINRPRP, the “shrunken log2 fold change” value is -0.104.
Under RRIRRRPPRLPRPRPRPSIMPRP stands -0.213; under RRIRNRPPRLPRPRPRPSFCPRP, -0.548; under RRIRDRPPRLPRPRPRPIYQPRP, -0.431.
Regarding RRIRDRPPRLPRPRPRPHDMPRP, the “shrunken log2 fold change” value was -0.0819.
Turning to RRIRRRPPRLPRPRPRPFVEPRP, the “shrunken log2 fold change” value is -0.142.
Take RRIRYRPPRLPRPRPRPHQPPRP: the “shrunken log2 fold change” value is -0.748.
As for RRIRGRPPRLPRPRPRPFDDPRP, the figure is 0.0195.
As for RRIRNRPPRLPRPRPRPPTKPRP, the “shrunken log2 fold change” value came to 0.46.
For RRIRGRPPRLPRPRPRPTREPRP, the “shrunken log2 fold change” value came to 0.994.
For RRIRGRPPRLPRPRPRPHENPRP, the “shrunken log2 fold change” value was found to be 0.446.
As to RRIRWRPPRLPRPRPRPCPAPRP, the “shrunken log2 fold change” value is -0.0319.
For the sequence RRIRCRPPRLPRPRPRPWLWPRP, the “shrunken log2 fold change” value was 0.0682.
In the case of RRIRTRPPRLPRPRPRPYDIPRP, the “shrunken log2 fold change” value is -0.795.
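Note: peptides expressed intracellularly from a pBAD plasmid library in pooled LB shake-flask culture, induced with 0.3% L-arabinose, DNA abundance read by NGS, three biological replicates, DESeq2 with apeglm shrinkage.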
